Consider six molecules from patent US20110195027A1 (KOREA RESEARCH INSTITUTE OF BIOSCIENCE AND BIOTECHNOLOGY, published 2011).

Assay [1] addresses T1, CD9-ECL2(CD9 extracellular domain 2)-Fc antigen (human).
T1 construct: also called CD9-ECL2-Fc; CD9-EC2-Fc
In words: phage ELISA. Here is the method: (§1) A 96-well immuno-plate was coated with CD9-EC2-Fc antigen (0.1 μg/well) at 4° C. for 16 hours, followed by blocking with skim milk dissolved in PBS (4%). Each well of the 96-well immuno-plate was washed with 0.2 ml of PBS-tween20 (0.05%). 100 ul of the 3rd-4th panning monoclonal scFV-phage was added to each well, followed by reaction at room temperature for 2 hours. Each well was washed four times with 0.2 ml of PBS-tween20 (0.05%). The secondary antibody anti-M13-HRP was diluted at 1:2000, followed by reaction at room temperature for 1 hour. The plate was washed with 0.2 ml of PBS-tween20 (0.05%), followed by color development. OD₄₉₀ was measured.
Target sequence in this assay (chain, as listed by the source limits assumed): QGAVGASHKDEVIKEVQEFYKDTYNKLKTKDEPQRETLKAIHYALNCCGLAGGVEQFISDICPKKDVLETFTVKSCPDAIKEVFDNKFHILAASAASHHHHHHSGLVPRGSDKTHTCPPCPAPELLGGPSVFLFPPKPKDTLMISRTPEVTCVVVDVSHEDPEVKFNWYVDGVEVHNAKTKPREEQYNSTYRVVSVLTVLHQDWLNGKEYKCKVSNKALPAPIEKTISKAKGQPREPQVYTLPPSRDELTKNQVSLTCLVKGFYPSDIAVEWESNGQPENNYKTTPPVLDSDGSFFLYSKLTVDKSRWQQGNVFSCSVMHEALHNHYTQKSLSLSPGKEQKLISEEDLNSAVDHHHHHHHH

The next assay addresses T2, Fc.
T2 construct: Control antigen of the phage ELISA
In words: phage ELISA. Here is the method: as §1

Assay [2] deals with T1, CD9-ECL2(CD9 extracellular domain 2)-Fc …. In words: phage ELISA; CD9 OD/a-myc OD (repeats Table 3). Here is the method: as §1
Target sequence in this assay (chain, as listed by the source limits assumed): as above
The target is the same in assay [3]. In words: phage ELISA; CD9 OD/a-myc OD. Here is the method:
as §1
Target sequence in this assay (chain, as listed by the source limits assumed): as above

For assay [4] the target is unchanged. In words: phage ELISA; CD9 OD/a-myc OD. This is another data set of the same source.
Assay [5] shares this target. In words: phage ELISA; CD9 OD/a-myc OD (repeats Table 2).
The target in the next assay is T3, CD9-ECL2 mutant M4 (human, with rat residues, UniProt P21926 112-195).
T3 construct: also called mutation 4; not shown: Myc and 8x His tag of the pYK His only vector
T3 chain: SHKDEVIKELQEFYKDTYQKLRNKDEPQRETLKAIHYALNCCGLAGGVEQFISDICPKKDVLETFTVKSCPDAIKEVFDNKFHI
In words: ELISA: antibody coated, supernatant, anti-His-HRP. Here is the method:
(§2) Each supernatant was loaded by 24 ul at 100 V for 2 hours, and then transferred to NC membrane (Millipore Cat. No. HATF00010) at 85V for 2 hours. The membrane finished with transfer was blocked by using blocking buffer (4% skim milk in TEST) at room temperature for 1 hour. A-His-HRP (Sigma, Cat. No. A7058) was diluted with blocking buffer (4% skim milk in TBST) at 1:4000 and binding was induced at room temperature for 1 hour. The membrane was washed with TBST 5 times every 10 minutes, followed by development (Intron, Cat. No. 12145). Expression of each mutant was confirmed by Western blotting (FIG. 15). Based on that, epitopes of ALB6 and 10E4 were confirmed by ELISA. A 96-well immuno-plate (NUNC) was coated with coating buffer comprising ALB6 and 10E4 (100 ng/100 ul/well each) at 4° C. for 16 hours, followed by blocking with 4% PBST (skim milk dissolved in 1× PBS) for 2 hours. Each well of the 96-well immuno-plate was washed three times with 0.2 ml of PBST (PBS-tween20 (0.05%)). From the supernatants obtained on day 5 confirmed to contain a large number of mutants confirmed by Western blotting, wild type, M1 and M4 supernatants were selected. 100 ul of the selected supernatant was added to each well of the plate, followed by reaction for 2 hours. The plate was washed again. The secondary antibody anti-His-HRP (Sigma A7058) was diluted at 1:1000, followed by reaction at room temperature for 30 minutes. Washing was performed three times by the same manner as described above. OPD tablet (Sigma 8787-TAB) was added to PC buffer [C₆H₈O₇H₂O (Sigma, C0706) 5.1 g, Na₂HPO₄ (Sigma, 57907 7.3 g)] to make substrate solution, which was added to each well by 100 ul/well, followed by color development for 10 minutes. Color development was terminated by adding 2 M H₂SO₄ solution. Then, OD₄₉₀ was measured by using ELISA reader (Molecular Device).

A further assay has as its target T4, CD9-ECL2 mutant M1 (human, with rat residues, UniProt P21926 112-195).
T4 construct: also called mutation 1; not shown: Myc and 8x His tag of the pYK His only vector
T4 chain: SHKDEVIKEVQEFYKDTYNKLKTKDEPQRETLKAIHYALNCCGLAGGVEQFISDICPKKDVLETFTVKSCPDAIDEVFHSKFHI
In words: ELISA: antibody coated, supernatant, anti-His-HRP. Here is the method: as §2

In assay [6] the target is T5, p-Myc-His CD9-ECL2 wild type (human).
T5 chain: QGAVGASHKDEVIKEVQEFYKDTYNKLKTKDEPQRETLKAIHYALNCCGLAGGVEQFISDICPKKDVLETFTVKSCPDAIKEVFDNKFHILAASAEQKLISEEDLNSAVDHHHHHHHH
In words: ELISA: antibody coated, supernatant, anti-His-HRP. Here is the method:
as §2

B1: CD9 3F3 scFv monoclonal phage antibody (scFv, V domains shown, not shown: small tags and cut ends)
VH: QMQLVQSGAEVKKPGASVKLSCKASGYTFSSYWMHWVRQAPGQRLEWMGEINPGNGHTNYNEKFKSRVTITVDKSASTAYMELSSLRSEDTAVYYCGQDNSPPRIWGQGTLITVSS
VL: QSALTQPASVSGSPGQSITISCTGTSSDVGGYNHVSWYQQHPGKAPKLLIYDVSNRPSGVSGRFSGSKSGNTASLTISGLQAEDEANYYCGSYTSSSTFEVFGTGTKVTVL
Take B1: the OD490 was 0.961 in assay [1] and 0.0394 with Fc. Besides, the Ratio in assay [2] and in assay [3] was 0.918 each time.

B2: CD9 11G scFv monoclonal phage antibody (scFv, V domains shown)
VH: QVQLVQSGAEVKKPGASVKLSCKASGYTSSSYWMHWVRQAPGQRLEWMGEINPGNGHTNYNEKFKSRVTITVDKSASTAYMELSSLRSEDTAVYYCGQDNSPPRIWGQGTLVTVSS
VL: DIQMTQSPSTLSASVGDRVTITCRASQTIGNLAWFQQKPGKAPKLLIYKASSLESGVPSRFSGSGSGTEFTLTISSLQPDDFATYYCQQYSDYWTFGQGTKVEIK
notes: also called 11G3
As for B2, the OD490 amounted to 2.24 in assay [1] and 0.0441 with Fc. Moreover, the Ratio in [2] and in assay [3] was 1.23 each time.

B3: CD9 8A scFv monoclonal phage antibody (scFv, V domains shown)
VH: QVQLVQSGAEVKKPGASVKLSCKASGYTFSSYWMHWVRQAPGQRLEWMGEINPGNGHTNYNEKFKSRVTITVGKSASTAYMELSSLRSEDTAVYYCAREGVSAAGGLDHWGQGTQITVSS
VL: DIQMTQSPSSLSVSTGARVTITCRASQGISNYLAWYQQKPGKAPKLLIYAASTLQSGVPSRFSGSGSGTDFTLTISSLQPEDFATYYCQQLNSYPLTFGGGTKVEIK
notes: also called 8A3
With B3, the values for the OD490 (in assay [1]; with Fc) were 1.61 and 0.088, respectively. Moreover, the Ratio in assay [2] and in [3] was 0.73 in each case.

B4: CD9 12F scFv monoclonal phage antibody (scFv, V domains shown)
VH: QVQLVQSGAEVKKPGASVKLSCKASGYTFSSYWMHWVRQAPGQRLEWMGEINPGNGHTNYNEKFKSRVTITVDKSASTAYMELSSLRSEDTAVYYCARELEEGAFDIWGQGTMVTVSS
VL: DIQMTQSPSSLPASVGDRVTITCRASQGISSYLAWYQQKPGKAPKLLIYAASTLQSGVPSRFSGSGSGTDFTLTISSLQPEDFATYYCQQYDSVPLTFGGGTKVEIK
notes: also called 12F3
On to B4, for which the OD490 in [1] amounted to 1.16; in the assay with Fc, 0.124. Besides, the Ratio in [2] turned out to be 0.668; in assay [3] it was 0.669.

B5: CD9 5G4 scFv monoclonal phage antibody (scFv, V domains shown)
VH: QVQLVSSGAEVKKPGASVKLSCKASGYTFSSYWMHWVRQAPGQRLEWMGEINPGNGHTNYNEKFKSRVTITVDKSASTAYMELSSLRSEDTAVYYCAREDDIEDAFDFWGQGTMVTVSS
VL: DIQMTQSPSSVSASVGDRVTITCRASQSISSWLAWYQQKPGKAPKLLIYGASNLQSGVPSRFSGSGSGTDFTLTISSLHPEDFATYFCHKTDSFPLTFGGGTKVEIK
Regarding B5, the Ratio in assay [4] and in assay [5] was 1.04 each time.

B6: 10E4 whole IgG (antibody, V domains shown)
VH: MAQVQLVQSGGGLVQPGRSLRLSCAASGFTFDDFAMHWVRQAPGKGLEWVAGISWNSGDIRYADSVRGRFTISRDNAKNSLFLQMNSLRAEDTAVYYCARSPVGTTYFDYWGQGALITVSS
VL: DIQMTQSPSSLSASVGDRVTITCRASQGISSYLAWYQQKPGKAPKLLIYAASTLQSEVPSRFSGSGSGTDFTLTISSLQPEDFATYYCQQLNIFPLTFGGTKVDIKR
notes: Whole IgG made from the 10E4 phage clone in pNATAB H and pNATAB L vectors; the heavy chain PCR primer starts at QVQLVQS; also called 10E4 human antibody; anti-CD9(10E4) IgG
Turning to B6, the OD490 with CD9-ECL2 mutant M4 worked out at 0.398; in the assay with CD9-ECL2 mutant M1 it was 0.084; in assay [6] it was 0.375.
